Legend:
Test in all cases: holdup assay
Parameters in all cases: key: below the threshold = too weak to quantify, mostly under pKd 3.1 to 4
[1] = target: T1, ARHGAP21, Q5T5U3
T1 sequence (Q5T5U3 45-169, limits assumed, looked up): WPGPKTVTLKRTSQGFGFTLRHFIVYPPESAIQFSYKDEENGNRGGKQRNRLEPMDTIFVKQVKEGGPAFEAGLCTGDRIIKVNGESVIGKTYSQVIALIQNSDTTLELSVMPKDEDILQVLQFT

[2] = target: T2, DFNB31_1, Q9P202
T2 sequence (Q9P202 135-233, limits assumed, looked up): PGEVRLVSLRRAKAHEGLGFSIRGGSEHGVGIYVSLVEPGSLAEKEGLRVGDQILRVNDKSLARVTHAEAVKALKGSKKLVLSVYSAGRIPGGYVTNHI

[3] = target: T3, DLG3_1, Q92796
T3 sequence (Q92796 125-227, limits assumed, looked up): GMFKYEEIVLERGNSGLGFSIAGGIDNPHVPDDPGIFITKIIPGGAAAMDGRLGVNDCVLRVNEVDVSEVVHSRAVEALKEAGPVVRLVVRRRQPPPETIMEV

[4] = target: T4, DLG3_3, Q92796
T4 sequence (Q92796 374-475, limits assumed, looked up): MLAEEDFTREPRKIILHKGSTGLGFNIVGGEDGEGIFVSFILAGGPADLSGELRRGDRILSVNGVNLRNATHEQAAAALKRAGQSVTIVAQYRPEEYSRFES

[5] = target: DLG4_1, P78352
[6] = target: FRMPD2_1, Q68DX3
[7] = target: GORASP2, Q9H8Y8
[8] = target: GRID2IP_1, A4D2P6
[9] = target: GRID2IP_2, A4D2P6
[10] = target: T5, GRIP1_2, Q9Y3R0
T5 sequence (Q9Y3R0 145-248, limits assumed, looked up): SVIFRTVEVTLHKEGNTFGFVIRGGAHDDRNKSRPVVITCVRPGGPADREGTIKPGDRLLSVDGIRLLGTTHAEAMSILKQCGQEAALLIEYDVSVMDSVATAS

[11] = target: T6, GRIP1_5, Q9Y3R0
T6 sequence (Q9Y3R0 568-668, limits assumed, looked up): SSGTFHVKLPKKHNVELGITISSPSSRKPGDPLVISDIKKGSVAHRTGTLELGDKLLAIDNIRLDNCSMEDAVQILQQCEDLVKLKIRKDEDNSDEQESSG

[12] = target: T7, GRIP1_7, Q9Y3R0
T7 sequence (Q9Y3R0 999-1096, limits assumed, looked up): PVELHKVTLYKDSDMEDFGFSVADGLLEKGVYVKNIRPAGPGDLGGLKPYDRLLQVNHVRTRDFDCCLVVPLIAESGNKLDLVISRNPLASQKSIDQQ

[13] = target: HTRA1, Q92743
[14] = target: IL16_3, Q14005
[15] = target: Inadl_5, Q8NI35
[16] = target: LDB3, O75112
[17] = target: LIMK2, P53671
[18] = target: T8, LNX2_3, Q8N448
T8 sequence (Q8N448 463-564, limits assumed, looked up): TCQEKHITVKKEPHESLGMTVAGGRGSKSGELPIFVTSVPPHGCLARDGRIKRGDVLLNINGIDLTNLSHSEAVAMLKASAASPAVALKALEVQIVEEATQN

[19] = target: T9, MPDZ_12, O75970
T9 sequence (O75970 1857-1958, limits assumed, looked up): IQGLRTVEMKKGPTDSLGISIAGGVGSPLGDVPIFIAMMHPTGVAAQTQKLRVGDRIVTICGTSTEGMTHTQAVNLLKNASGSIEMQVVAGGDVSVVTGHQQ

[20] = target: NHERF4_1, Q86UT5-2
[21] = target: T10, PARD3B_1, Q8TEW8
T10 sequence (Q8TEW8 196-299, limits assumed, looked up): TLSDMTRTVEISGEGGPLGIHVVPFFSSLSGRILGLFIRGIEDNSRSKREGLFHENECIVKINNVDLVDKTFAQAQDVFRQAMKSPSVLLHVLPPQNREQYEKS

[22] = target: PTPN3, P26045
[23] = target: T11, RHPN1, Q8TCX5
T11 sequence (Q8TCX5 508-602, limits assumed, looked up): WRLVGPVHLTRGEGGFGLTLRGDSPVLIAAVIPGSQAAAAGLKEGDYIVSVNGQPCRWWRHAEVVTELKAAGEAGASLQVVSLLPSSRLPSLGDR

[24] = target: SNX27, Q96L92
[25] = target: T12, TJP3_3, O95049
T12 sequence (O95049 375-456, limits assumed, looked up): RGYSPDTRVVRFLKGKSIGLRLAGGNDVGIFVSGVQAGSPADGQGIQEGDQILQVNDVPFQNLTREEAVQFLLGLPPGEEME

[26] = plain residues with an end cap or a label only (N-terminal biotin on a linker: ttds)
[27] = plain residues with an end cap or a label only (N-terminal biotin on a linker: ahx)
[28] = plain residues with an end cap or a label only (N-terminal biotin on a linker: ado-ado)

Sequence of NHERF4_1, Q86UT5-2 (Q86UT5 other isoform, or with tags, fused parts or gaps): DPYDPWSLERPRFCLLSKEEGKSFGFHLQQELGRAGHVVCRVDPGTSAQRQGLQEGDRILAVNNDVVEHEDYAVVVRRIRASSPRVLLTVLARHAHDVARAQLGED
Sequence of GRID2IP_2, A4D2P6 (A4D2P6 272-370): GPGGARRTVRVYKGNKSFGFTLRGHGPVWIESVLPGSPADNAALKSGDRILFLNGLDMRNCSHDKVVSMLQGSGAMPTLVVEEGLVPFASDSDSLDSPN
Sequence of IL16_3, Q14005 (Q14005 1107-1207): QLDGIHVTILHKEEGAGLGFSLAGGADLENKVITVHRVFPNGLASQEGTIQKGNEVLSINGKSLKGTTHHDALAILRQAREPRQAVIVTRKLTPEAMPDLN
Sequence of LIMK2, P53671 (P53671 143-248): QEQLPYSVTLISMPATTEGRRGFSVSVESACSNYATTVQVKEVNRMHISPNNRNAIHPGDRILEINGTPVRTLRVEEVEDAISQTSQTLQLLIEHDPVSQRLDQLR
Sequence of DLG4_1, P78352 (P78352 62-152): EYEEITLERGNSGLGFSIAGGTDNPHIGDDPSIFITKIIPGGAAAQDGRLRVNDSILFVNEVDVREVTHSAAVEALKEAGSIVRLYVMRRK
Sequence of PTPN3, P26045 (P26045 505-587): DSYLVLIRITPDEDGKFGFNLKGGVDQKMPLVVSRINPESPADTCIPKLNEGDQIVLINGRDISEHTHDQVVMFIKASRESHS
Sequence of FRMPD2_1, Q68DX3 (Q68DX3 770-861): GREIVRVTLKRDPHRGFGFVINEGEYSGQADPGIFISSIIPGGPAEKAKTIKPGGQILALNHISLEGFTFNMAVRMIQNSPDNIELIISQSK
Sequence of HTRA1, Q92743 (Q92743 360-477): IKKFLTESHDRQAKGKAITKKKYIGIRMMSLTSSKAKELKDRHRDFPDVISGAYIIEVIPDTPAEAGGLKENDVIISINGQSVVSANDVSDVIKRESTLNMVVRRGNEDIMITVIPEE
Sequence of Inadl_5, Q8NI35 (Q8NI35 673-780): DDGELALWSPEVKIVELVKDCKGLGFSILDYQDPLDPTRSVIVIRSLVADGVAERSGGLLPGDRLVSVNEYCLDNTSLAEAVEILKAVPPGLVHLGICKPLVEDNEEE
Sequence of LDB3, O75112 (O75112 1-94): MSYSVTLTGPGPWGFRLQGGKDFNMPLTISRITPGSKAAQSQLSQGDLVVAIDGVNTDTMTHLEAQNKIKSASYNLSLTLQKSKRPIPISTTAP
Sequence of GRID2IP_1, A4D2P6 (A4D2P6 1-87): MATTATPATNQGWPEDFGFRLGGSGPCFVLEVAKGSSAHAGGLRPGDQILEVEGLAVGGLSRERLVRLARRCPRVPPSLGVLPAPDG

GARVSKETPL [MAPK12, P53778]
pKd [1, 26]: below the threshold | pKd [2, 26]: 3.95 | pKd [3, 26]: 3.49 | pKd [4, 26]: 4.01 | pKd [5, 26]: below the threshold | pKd [6, 26]: below the threshold | pKd [7, 26]: below the threshold | pKd [8, 26]: below the threshold | pKd [9, 26]: 3.53 | pKd [10, 26]: below the threshold | pKd [11, 26]: below the threshold | pKd [12, 26]: below the threshold | pKd [13, 26]: below the threshold | pKd [14, 26]: below the threshold | pKd [15, 26]: below the threshold | pKd [16, 26]: below the threshold | pKd [17, 26]: below the threshold | pKd [18, 26]: below the threshold | pKd [19, 26]: below the threshold | pKd [20, 26]: 3.85 | pKd [21, 26]: below the threshold | pKd [22, 26]: 4.93 | pKd [23, 26]: below the threshold | pKd [24, 26]: 5 | pKd [25, 26]: below the threshold

KQVVPFSSSV [GDA, Q9Y2T3]
pKd [1, 26]: below the threshold | pKd [2, 26]: below the threshold | pKd [3, 26]: below the threshold | pKd [4, 26]: below the threshold | pKd [5, 26]: 3.83 | pKd [6, 26]: below the threshold | pKd [7, 26]: below the threshold | pKd [8, 26]: below the threshold | pKd [9, 26]: 3.6 | pKd [10, 26]: below the threshold | pKd [11, 26]: below the threshold | pKd [12, 26]: below the threshold | pKd [13, 26]: below the threshold | pKd [14, 26]: below the threshold | pKd [15, 26]: below the threshold | pKd [16, 26]: below the threshold | pKd [17, 26]: below the threshold | pKd [18, 26]: below the threshold | pKd [19, 26]: 3.66 | pKd [20, 26]: below the threshold | pKd [21, 26]: below the threshold | pKd [22, 26]: 4.24 | pKd [23, 26]: below the threshold | pKd [24, 26]: 3.53 | pKd [25, 26]: below the threshold

KDECVIATEV [DLL1, O00548]
pKd [1, 27]: below the threshold | pKd [2, 27]: below the threshold | pKd [3, 27]: below the threshold | pKd [4, 27]: below the threshold | pKd [5, 27]: 3.93 | pKd [6, 27]: below the threshold | pKd [7, 27]: below the threshold | pKd [8, 27]: below the threshold | pKd [9, 27]: 3.48 | pKd [10, 27]: below the threshold | pKd [11, 27]: below the threshold | pKd [12, 27]: below the threshold | pKd [13, 27]: 4.04 | pKd [14, 27]: below the threshold | pKd [15, 27]: below the threshold | pKd [16, 27]: below the threshold | pKd [17, 27]: below the threshold | pKd [18, 27]: below the threshold | pKd [19, 27]: below the threshold | pKd [20, 27]: below the threshold | pKd [21, 27]: below the threshold | pKd [22, 27]: 4.2 | pKd [23, 27]: 3.95 | pKd [24, 27]: 4.36 | pKd [25, 27]: below the threshold

PDSYHRRDFW [U2AF2, P26368]
pKd [1, 28]: 4.08 | pKd [2, 28]: 3.57 | pKd [3, 28]: below the threshold | pKd [4, 28]: below the threshold | pKd [5, 28]: 3.62 | pKd [6, 28]: below the threshold | pKd [7, 28]: below the threshold | pKd [8, 28]: below the threshold | pKd [9, 28]: below the threshold | pKd [10, 28]: below the threshold | pKd [11, 28]: below the threshold | pKd [12, 28]: below the threshold | pKd [13, 28]: 4.14 | pKd [14, 28]: below the threshold | pKd [15, 28]: below the threshold | pKd [16, 28]: below the threshold | pKd [17, 28]: below the threshold | pKd [18, 28]: below the threshold | pKd [19, 28]: below the threshold | pKd [20, 28]: below the threshold | pKd [21, 28]: 4.1 | pKd [22, 28]: below the threshold | pKd [23, 28]: below the threshold | pKd [24, 28]: 3.61 | pKd [25, 28]: below the threshold

AKPQPVDSWV [ARVCF, O00192]
pKd [1, 27]: below the threshold | pKd [2, 27]: 4.28 | pKd [3, 27]: 4.09 | pKd [4, 27]: below the threshold | pKd [5, 27]: 4.2 | pKd [6, 27]: below the threshold | pKd [7, 27]: 4.51 | pKd [8, 27]: below the threshold | pKd [9, 27]: below the threshold | pKd [10, 27]: below the threshold | pKd [11, 27]: below the threshold | pKd [12, 27]: below the threshold | pKd [13, 27]: 4.6 | pKd [14, 27]: below the threshold | pKd [15, 27]: below the threshold | pKd [16, 27]: below the threshold | pKd [17, 27]: below the threshold | pKd [18, 27]: below the threshold | pKd [19, 27]: 4.4 | pKd [20, 27]: below the threshold | pKd [21, 27]: below the threshold | pKd [22, 27]: 4.94 | pKd [23, 27]: 3.8 | pKd [24, 27]: 5.15 | pKd [25, 27]: 4.73

NPDALPETLV [ARHGAP6, O43182]
pKd [1, 26]: below the threshold | pKd [2, 26]: 4.1 | pKd [3, 26]: below the threshold | pKd [4, 26]: below the threshold | pKd [5, 26]: 4.13 | pKd [6, 26]: below the threshold | pKd [7, 26]: below the threshold | pKd [8, 26]: below the threshold | pKd [9, 26]: 3.8 | pKd [10, 26]: below the threshold | pKd [11, 26]: below the threshold | pKd [12, 26]: 3.61 | pKd [13, 26]: 4.13 | pKd [14, 26]: below the threshold | pKd [15, 26]: below the threshold | pKd [16, 26]: below the threshold | pKd [17, 26]: below the threshold | pKd [18, 26]: below the threshold | pKd [19, 26]: below the threshold | pKd [20, 26]: 3.6 | pKd [21, 26]: below the threshold | pKd [22, 26]: 4.44 | pKd [23, 26]: 4.61 | pKd [24, 26]: 4.7 | pKd [25, 26]: below the threshold

Source: article PMC9482650, “Quantitative fragmentomics allow affinity mapping of interactomes” (Nature Communications, 2022)
